Data as given in US20040081659A1 (MERCK, published 2004).

B1: 4-O-(Ac-4-trans-L-HypSSChgQSS-(d)-Pro)-(dAc)-VIN (peptide)
peptide: XSSXQSSP
modifications: N-terminal acetyl; 4-trans-L-hydroxyproline at 1; Chg at 4; D-Pro at 8, esterified to the 4-O of des-acetylvinblastine
B2: 4-O-(Ac-4-trans-L-HypSSChgQ-S(dS)-4-trans-L-Hyp)-dAc-VIN (peptide)
peptide: XSSXQSXX
modifications: N-terminal acetyl; 4-trans-L-hydroxyproline at 1 and 8; Chg at 4; D-Ser at 7; C-terminus esterified to the 4-O of des-acetylvinblastine
B3: 4-O-[(2-OH)Ac-SChgQSS-Sar]-dAc-VIN (peptide)
peptide: XXQSSX
modifications: N-terminal hydroxyacetyl ((2-OH)Ac); Chg at 2; sarcosine at 6, esterified to the 4-O of des-acetylvinblastine

Molecular target: free prostate specific antigen (PSA) (human, UniProt P07288 25-261)
Assay: cell-based or functional assay

Point of comparison: B1, “Time to 50% Substrate Cleavage by York PSA (Min); cell gives percent cleaved at 1 hour” value 34 % cleaved at 1 hour. Against it:
- B2 — lower, 12 % cleaved at 1 hour
- B3 — lower, 4 % cleaved at 1 hour
